In publication PMC12676778, “Long-tailed class I myosins rely on tail-mediated phosphoinositide recognition for specific membrane recruitment” (Cell Communication and Signaling : CCS, 2025) one finds Kd, inhibition of the cold-induced depolymerization of microtubules, IC50 and cold-induced depolymerization assays of microtubules, IC50 data, which are given here for 1 substance.

One assay deals with F-actin (UniProt P68135). The experiment in a line: co-sedimentation; YFP fluorescence of pellet and supernatant; increasing F-actin concentrations; 5 mM Tris pH 7.4, 100 mM KCl, 0.04% NaN3, 2 mM MgCl2; 20,000 g, 30 min, 4 °C.
The target of assay [1] is microtubules (UniProt P02550).
Assay [2] deals with microtubules (UniProt P02550). The source holds these as a separate data set.

Sequence of microtubules (P02550 whole entry, chain 1 of 2): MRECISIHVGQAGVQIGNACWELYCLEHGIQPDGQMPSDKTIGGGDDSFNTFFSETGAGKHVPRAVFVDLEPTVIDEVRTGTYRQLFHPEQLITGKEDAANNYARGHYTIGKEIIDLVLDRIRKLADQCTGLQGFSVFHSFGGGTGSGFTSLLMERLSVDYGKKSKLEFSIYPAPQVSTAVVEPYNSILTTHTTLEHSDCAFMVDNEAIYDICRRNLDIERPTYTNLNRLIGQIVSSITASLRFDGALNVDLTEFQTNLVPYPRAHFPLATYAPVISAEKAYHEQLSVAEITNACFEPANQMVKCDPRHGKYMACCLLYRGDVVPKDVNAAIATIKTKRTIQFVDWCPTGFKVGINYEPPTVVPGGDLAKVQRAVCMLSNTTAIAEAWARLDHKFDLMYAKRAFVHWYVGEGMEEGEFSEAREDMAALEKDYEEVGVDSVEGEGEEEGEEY
Sequence of microtubules (P02554 whole entry, chain 2 of 2, further chain): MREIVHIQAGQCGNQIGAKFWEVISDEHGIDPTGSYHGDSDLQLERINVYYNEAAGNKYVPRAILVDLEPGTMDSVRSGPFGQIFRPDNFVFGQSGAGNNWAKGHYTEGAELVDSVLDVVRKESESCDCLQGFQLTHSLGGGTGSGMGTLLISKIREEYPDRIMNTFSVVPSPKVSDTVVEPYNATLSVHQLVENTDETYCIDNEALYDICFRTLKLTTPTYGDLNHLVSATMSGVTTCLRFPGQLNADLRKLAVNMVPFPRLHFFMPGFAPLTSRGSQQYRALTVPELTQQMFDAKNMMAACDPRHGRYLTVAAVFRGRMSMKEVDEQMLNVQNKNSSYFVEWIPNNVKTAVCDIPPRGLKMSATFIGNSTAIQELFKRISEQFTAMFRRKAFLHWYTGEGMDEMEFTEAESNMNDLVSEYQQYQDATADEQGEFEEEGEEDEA

For the substance “myosin-1D tail (amino acids 717–1113) (domain or fragment)”, the Kd with F-actin is 12000 nM. The substance further gave an inhibition of the cold-induced depolymerization of microtubules, IC50 with microtubules [1] of 15 nM. In the assay with microtubules [2], the cold-induced depolymerization assays of microtubules, IC50 is 20 nM.
